{"source": "ChEMBL document CHEMBL3244047", "about": "“Peptidyl transferase substrate specificity with nonaromatic aminoacyl analogues of puromycin” (J Med Chem, 1978)", "key": {"[1]": {"target": "T1, Bacterial 70S ribosome (Bacteria) (UniProt P0A7V0+P60723+P0AG67+P0A7R5+P0A7R9+P0A7S3+P0A7S9+P0AG59+P0ADZ4+P0A7T3+P0AG63+P0A7T7+P0A7U3+P0A7U7+P68679+P0A7V3+P0A7V8+P0A7W1+P02358+P02359+P0A7W7+P0A7X3+P0A7J3+P0A7J7+P0AA10+P0ADY3+P02413+P0ADY7+P0AG44+P0C018+P0A7K6+P0A7L0+P0A7L3+P0AG48+P61175+P0ADZ0+P60624+P68919+P0A7L8+P0A7M2+P0A7M6+P60422+P0AG51+P0A7N1+P0A7M9+P0A7N4+P0A7N9+P0A7P5+P0A7Q1+Q2EEQ2+P0A7Q6+P60438+P62399+P0AG55+P0A7K2)", "test": "Activity of Escherichia coli ribosomal peptidyl transferase using Ac[14C]phe-tRNA as donor substrate assessed as [14C]polyphenylalanine formation after 40 mins by scintillation counting analysis in presence of poly(U) relative to puromycin"}, "[2]": {"target": "T1, Bacterial 70S ribosome (Bacteria)", "test": "Activity of Escherichia coli ribosomal peptidyl transferase using Ac[14C]phe-tRNA as donor substrate assessed as [14C]polyphenylalanine formation at 2 x 10^-4 M after 40 mins by double reciprocal plot analysis in presence of poly(U)"}, "[3]": {"test_system": "CCCCCCCCSC[C@H](N)C(=O)N[C@H]1[C@@H](O)[C@H](n2cnc3c(N(C)C)ncnc32)O[C@@H]1CO", "test": "(§1) Activity of Escherichia coli ribosomal peptidyl transferase using Ac[14C]phe-tRNA as donor substrate assessed as [14C]polyphenylalanine formation after 40 mins by double reciprocal plot analysis in presence of poly(U)", "conditions": "Ribosome"}, "[4]": {"test_system": "CCCCCCSC[C@H](N)C(=O)N[C@H]1[C@@H](O)[C@H](n2cnc3c(N(C)C)ncnc32)O[C@@H]1CO", "test": "as §1", "conditions": "Ribosome"}, "[5]": {"test_system": "CCCCCSC[C@H](N)C(=O)N[C@H]1[C@@H](O)[C@H](n2cnc3c(N(C)C)ncnc32)O[C@@H]1CO", "test": "as §1", "conditions": "Ribosome"}, "[6]": {"test_system": "CCCCSC[C@H](N)C(=O)N[C@H]1[C@@H](O)[C@H](n2cnc3c(N(C)C)ncnc32)O[C@@H]1CO", "test": "as §1", "conditions": "Ribosome"}, "[7]": {"test_system": "CCCSC[C@H](N)C(=O)N[C@H]1[C@@H](O)[C@H](n2cnc3c(N(C)C)ncnc32)O[C@@H]1CO", "test": "as §1", "conditions": "Ribosome"}, "[8]": {"test_system": "CN(C)c1ncnc2c1ncn2[C@@H]1O[C@H](CO)[C@@H](NC(=O)[C@@H](N)CSCCCCCCO)[C@H]1O", "test": "as §1", "conditions": "Ribosome"}, "[9]": {"test_system": "CN(C)c1ncnc2c1ncn2[C@@H]1O[C@H](CO)[C@@H](NC(=O)[C@@H](N)CSCc2ccccc2)[C@H]1O", "test": "as §1", "conditions": "Ribosome"}, "[10]": {"test_system": "COc1ccc(C[C@H](N)C(=O)N[C@H]2[C@@H](O)[C@H](n3cnc4c(N(C)C)ncnc43)O[C@@H]2CO)cc1", "test": "as §1", "conditions": "Ribosome"}}, "note": "Calls of active or inactive are those of the source. No cut-off for these calls is given here.", "data": [{"compound": "CN(C)c1ncnc2c1ncn2[C@@H]1O[C@H](CO)[C@@H](NC(=O)[C@@H](N)CSCCCCCCO)[C@H]1O", "values": [{"measurement": "Efficacy", "setting": "[1]", "value": 95.6, "unit": "%"}]}, {"compound": "CCCCSC[C@H](N)C(=O)N[C@H]1[C@@H](O)[C@H](n2cnc3c(N(C)C)ncnc32)O[C@@H]1CO", "values": [{"measurement": "Efficacy", "setting": "[1]", "value": 36.2, "unit": "%"}]}, {"compound": "CCCSC[C@H](N)C(=O)N[C@H]1[C@@H](O)[C@H](n2cnc3c(N(C)C)ncnc32)O[C@@H]1CO", "values": [{"measurement": "Efficacy", "setting": "[1]", "value": 44.8, "unit": "%"}]}, {"compound": "CCCCCCSC[C@H](N)C(=O)N[C@H]1[C@@H](O)[C@H](n2cnc3c(N(C)C)ncnc32)O[C@@H]1CO", "values": [{"measurement": "Efficacy", "setting": "[1]", "value": 67.5, "unit": "%"}]}, {"compound": "CN(C)c1ncnc2c1ncn2[C@@H]1O[C@H](CO)[C@@H](NC(=O)[C@@H](N)CSC(c2ccccc2)c2ccccc2)[C@H]1O", "values": [{"measurement": "Activity", "setting": "[2]", "value": "inactive"}]}, {"compound": "CCCCCCCCSC[C@H](N)C(=O)N[C@H]1[C@@H](O)[C@H](n2cnc3c(N(C)C)ncnc32)O[C@@H]1CO", "values": [{"measurement": "Efficacy", "setting": "[1]", "value": 45.6, "unit": "%"}]}, {"compound": "CCC(CC)SC[C@H](N)C(=O)N[C@H]1[C@@H](O)[C@H](n2cnc3c(N(C)C)ncnc32)O[C@@H]1CO", "values": [{"measurement": "Activity", "setting": "[2]", "value": "inactive"}]}, {"compound": "CCCCCSC[C@H](N)C(=O)N[C@H]1[C@@H](O)[C@H](n2cnc3c(N(C)C)ncnc32)O[C@@H]1CO", "values": [{"measurement": "Efficacy", "setting": "[1]", "value": 54.3, "unit": "%"}]}, {"compound": "CN(C)c1ncnc2c1ncn2[C@@H]1O[C@H](CO)[C@@H](NC(=O)[C@@H](N)CSCc2ccccc2)[C@H]1O", "values": [{"measurement": "Efficacy", "setting": "[1]", "value": 17.4, "unit": "%"}]}, {"compound": "Bacterial 70S ribosome (Bacteria) (from UniProt P0A7V0+P60723+P0AG67+P0A7R5+P0A7R9+P0A7S3+P0A7S9+P0AG59+P0ADZ4+P0A7T3+P0AG63+P0A7T7+P0A7U3+P0A7U7+P68679+P0A7V3+P0A7V8+P0A7W1+P02358+P02359+P0A7W7+P0A7X3+P0A7J3+P0A7J7+P0AA10+P0ADY3+P02413+P0ADY7+P0AG44+P0C018+P0A7K6+P0A7L0+P0A7L3+P0AG48+P61175+P0ADZ0+P60624+P68919+P0A7L8+P0A7M2+P0A7M6+P60422+P0AG51+P0A7N1+P0A7M9+P0A7N4+P0A7N9+P0A7P5+P0A7Q1+Q2EEQ2+P0A7Q6+P60438+P62399+P0AG55+P0A7K2)", "values": [{"measurement": "Km", "setting": "[3]", "value": 177, "unit": "µM"}, {"measurement": "Vmax", "setting": "[3]", "value": 1.38, "unit": "pmol/min"}, {"measurement": "Km", "setting": "[4]", "value": 215, "unit": "µM"}, {"measurement": "Vmax", "setting": "[4]", "value": 2.46, "unit": "pmol/min"}, {"measurement": "Km", "setting": "[5]", "value": 255, "unit": "µM"}, {"measurement": "Vmax", "setting": "[5]", "value": 2.36, "unit": "pmol/min"}, {"measurement": "Km", "setting": "[6]", "value": 395, "unit": "µM"}, {"measurement": "Vmax", "setting": "[6]", "value": 2.43, "unit": "pmol/min"}, {"measurement": "Km", "setting": "[7]", "value": 374, "unit": "µM"}, {"measurement": "Vmax", "setting": "[7]", "value": 2.86, "unit": "pmol/min"}, {"measurement": "Km", "setting": "[8]", "value": 166, "unit": "µM"}, {"measurement": "Vmax", "setting": "[8]", "value": 2.71, "unit": "pmol/min"}, {"measurement": "Km", "setting": "[9]", "value": 460, "unit": "µM"}, {"measurement": "Vmax", "setting": "[9]", "value": 1.36, "unit": "pmol/min"}, {"measurement": "Km", "setting": "[10]", "value": 234, "unit": "µM"}, {"measurement": "Vmax", "setting": "[10]", "value": 3.99, "unit": "pmol/min"}]}]}
